Data taken from US6820011B2, “Three-dimensional structure of complement receptor type 2 and uses thereof” (The Regents of the University of Colorado, priority 2001, dated 2004).
Entries after “also recorded” stand apart in the source; their conditions may differ.

Biological target: T1, CR2 (Homo sapiens, UniProt P20023, G20A)
T1 sequence (P20023 20-153 G20A): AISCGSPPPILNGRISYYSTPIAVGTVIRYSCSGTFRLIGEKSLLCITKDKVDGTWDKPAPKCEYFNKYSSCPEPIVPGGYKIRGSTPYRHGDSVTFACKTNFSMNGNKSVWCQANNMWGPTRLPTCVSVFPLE
Assay: native gel shift assay of the binding between CR2 and C3d wild type or mutants
Settings: for interaction with CR2 (shift of C3d band to the complex form): 6% native polyacrylamide gel, same C3d concentration, increasing amount of CR2, compared with wild type C3d
From the text: Based on the complex structure, mutagenesis of C3d around the interface to disrupt CR2 binding was predicted to be difficult. This is because the interaction between CR2 and C3 d involves mostly main-chain H-bonding, and the side chain residues play relatively small roles in the binding. However, to confirm the accuracy of the CR2-C3d interaction seen in this co-crystal structure, two informative C3d mutants were constructed. In mutant 170 (mt170; SEQ ID NO:8), residue Asn170 was changed to Arg. Asn170 is located on H7 of C3d and is the only residue on C3d that more or less points directly toward CR2 in the interface (FIG. 3E). Asn170 also packs directly with Tyr81 of CR2 as well as forms an H-bond with CR2 (Lys100) through a water molecule (FIG. 3E).
Briefly, FIGS. 4A and 4B show a native gel shift assay of the binding between CR2 and C3d wild type (wt) or mutants (mt). […] The C3d band will be shifted to the upper part of the gel when it forms a complex with CR2. The C3d concentration (for both wt and mt) is the same throughout lanes 1-12. The CR2 added to each corresponding lanes for wt and mt C3d was also the same, e.g. same amount of CR2 was added to the C3d samples in lane 2, 6 and 10, or in lanes 4, 8 and 12. […] The same conclusion can be drawn by comparing the intensity of the bands of the complexes containing the wt, mt115 and mt170. FIG. 4B is a graphical representation showing the intensity changes of the complex bands (measured by densitometry) as CR2 concentration increases from lanes 2 to 4 (wt), or lanes 6 to 8 (mt115), or lanes 10 to 12 (mt170).
The result shown in this experiment is consistent with that predicted by the interaction interface seen in the complex structure. […] This is consistent with the complex structure in that all these three residues, even though located within the interface area, have their side chains pointing sideways and are not involved in the direct contact with CR2. The side chain of Glu117, however, participates in the Zn coordination. […] The coordinated Zn in the structure, therefore, could simply come from the crystallization buffer which contained ZnAcetate.

Row | Substance | interaction with CR2 (shift of C3d band to the complex form) | apparent affinity for CR2 from intensity of the complex bands (densitometry) (as CR2 concentration increases, FIG. 4B)
1 | mt115: C3d mutant Gln105Ala, Leu116Ala, Glu117Ala | completely shifted to the complex form; also recorded: no obvious effect on CR2 binding | 
2 | mt170: C3d mutant, residue Asn170 changed to Arg (SEQ ID NO:8) | clearly less strong; also recorded: still contains an obvious C3d band | less apparent affinity for CR2 than wt and mt115
3 | wt: wild type human C3d (SEQ ID NO:7), CR2 ligand [reference compound] | completely shifted to the complex form | 
